In patent publication US20260265354A1 (JIANGSU MABWELL HEALTH PHARMACEUTICAL R AND D, published 2026):

Columns and labels:
[1] = molecular target: T1, Nectin-like-5 (UniProt P15151 21-343); experiment: ELISA, coated antigen, antibody at 1000 ng/ml
T1 construct: Bought recombinant protein; also called CD155; PVR
T1 sequence (looked up): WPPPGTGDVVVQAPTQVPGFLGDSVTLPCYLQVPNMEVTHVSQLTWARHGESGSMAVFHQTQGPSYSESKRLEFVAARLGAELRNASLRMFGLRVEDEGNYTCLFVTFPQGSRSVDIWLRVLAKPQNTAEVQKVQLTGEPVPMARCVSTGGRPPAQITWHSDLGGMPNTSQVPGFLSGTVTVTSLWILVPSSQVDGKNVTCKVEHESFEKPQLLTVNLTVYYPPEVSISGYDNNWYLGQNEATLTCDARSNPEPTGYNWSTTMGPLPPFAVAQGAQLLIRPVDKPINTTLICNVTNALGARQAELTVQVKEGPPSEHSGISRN
Protocol: (§1) Coating: Nectin-1, Nectin-2, Nectin-3, Nectin-4, Nectin-like-1, Nectin-like-2, Nectin-like-3, Nectin-like-4, and Nectin-like-5 were diluted to 5 μg/ml in coating buffer (carbonate buffer, pH 9.6) respectively. A 96-well plate was coat with 100 μl per well and incubated overnight at 2-8° C.;
(§2) Sample loading: The plate was taken out, patted dry, and washed twice with 200 μl/well of PBST, then patted dry. The Nectin-4 antibodies prepared in Example 1 (antibody MM11, antibody R012, and antibody R036) were diluted with 1% BSA/PBST to concentrations of 10 μg/ml, 1 μg/ml, 100 ng/ml, and 10 ng/ml, respectively. 1% BSA/PBST solution for dilution was set as a blank control. 100 μl per well was added to the 96-well plate, and incubated at room temperature for 2 hours;
(§3) Reaction termination and plate reading: 100 μl/well of 1 mol/L H3PO4 was added to terminate the reaction and the plated was read. The absorbances of wells in the plate at 450 nm with 650 nm as reference wavelength were read and recorded as OD_{450 nm-650 nm}.

[2] = molecular target: T2, Nectin-1 (UniProt Q15223 31-334, limits assumed); experiment: ELISA, coated antigen, antibody at 1000 ng/ml
T2 construct: Bought recombinant protein; also called CD111; PVRL-1
T2 sequence (looked up): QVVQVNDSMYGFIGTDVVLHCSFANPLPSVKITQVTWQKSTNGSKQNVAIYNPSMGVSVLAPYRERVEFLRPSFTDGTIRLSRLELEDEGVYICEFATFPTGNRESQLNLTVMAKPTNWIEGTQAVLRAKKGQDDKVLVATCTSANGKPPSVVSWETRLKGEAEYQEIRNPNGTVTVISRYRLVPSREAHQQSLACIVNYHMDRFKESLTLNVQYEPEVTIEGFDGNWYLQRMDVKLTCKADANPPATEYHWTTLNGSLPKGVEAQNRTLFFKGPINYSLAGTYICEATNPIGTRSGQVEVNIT
Protocol: as §1, §2, §3

[3] = molecular target: T3, Nectin-like-1 (UniProt Q8N126 25-330, limits assumed); experiment: ELISA, coated antigen, antibody at 1000 ng/ml
T3 construct: Bought recombinant protein; also called CADM3; IgSF4B
T3 sequence (looked up): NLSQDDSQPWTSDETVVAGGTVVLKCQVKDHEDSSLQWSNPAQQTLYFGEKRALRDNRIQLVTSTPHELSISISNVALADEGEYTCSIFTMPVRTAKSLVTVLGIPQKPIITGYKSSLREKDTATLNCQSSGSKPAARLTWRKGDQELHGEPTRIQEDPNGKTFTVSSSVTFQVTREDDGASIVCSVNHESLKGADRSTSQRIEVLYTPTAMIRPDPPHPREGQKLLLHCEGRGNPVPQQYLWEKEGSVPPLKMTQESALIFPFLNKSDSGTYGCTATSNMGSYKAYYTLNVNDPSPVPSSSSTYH
Protocol: as §1, §2, §3

[4] = molecular target: T4, Nectin-like-4 (UniProt Q8NFZ8 21-324, limits assumed); experiment: ELISA, coated antigen, antibody at 10000 ng/ml
T4 construct: Bought recombinant protein; also called CADM4; IgSF4C
T4 sequence (looked up): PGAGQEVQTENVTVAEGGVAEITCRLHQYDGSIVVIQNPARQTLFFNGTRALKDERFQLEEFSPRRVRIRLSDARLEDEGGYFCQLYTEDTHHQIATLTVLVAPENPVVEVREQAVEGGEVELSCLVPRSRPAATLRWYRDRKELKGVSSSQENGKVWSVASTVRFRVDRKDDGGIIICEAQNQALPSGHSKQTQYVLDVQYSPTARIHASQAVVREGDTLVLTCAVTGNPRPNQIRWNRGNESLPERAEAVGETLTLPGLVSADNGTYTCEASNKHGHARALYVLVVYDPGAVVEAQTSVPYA
Protocol: as §1, §2, §3

[5] = molecular target: T1, Nectin-like-5; experiment: ELISA, coated antigen, antibody at 10000 ng/ml
Protocol: as §1, §2, §3

[6] = molecular target: T2, Nectin-1; experiment: ELISA, coated antigen, antibody at 10000 ng/ml
Protocol: as §1, §2, §3

[7] = molecular target: T5, Nectin-2 (UniProt Q92692 32-360, limits assumed); experiment: ELISA, coated antigen, antibody at 10000 ng/ml
T5 construct: Bought recombinant protein; also called CD112; PVRL-2
T5 sequence (looked up): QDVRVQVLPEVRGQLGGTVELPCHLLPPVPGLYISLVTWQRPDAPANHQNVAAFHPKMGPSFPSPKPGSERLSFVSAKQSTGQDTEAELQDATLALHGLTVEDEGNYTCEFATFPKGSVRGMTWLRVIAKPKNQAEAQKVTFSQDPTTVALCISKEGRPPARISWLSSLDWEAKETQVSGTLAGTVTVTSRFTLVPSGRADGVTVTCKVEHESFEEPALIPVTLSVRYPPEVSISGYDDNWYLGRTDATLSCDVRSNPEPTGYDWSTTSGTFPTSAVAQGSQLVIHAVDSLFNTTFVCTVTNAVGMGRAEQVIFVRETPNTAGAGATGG
Protocol: as §1, §2, §3

[8] = molecular target: T3, Nectin-like-1; experiment: ELISA, coated antigen, antibody at 10000 ng/ml
Protocol: as §1, §2, §3

B1: Antibody R012 (antibody, V domains shown)
VH: SKSVEESGGRLVTPGTPLTLTCTVSGFSLSTYAMSWVRQAPGKGLEYIGIISGRGTTYYASWLKGRFTISKTSTTVDLKITSPTTEDTATYFCARDAGISDVYTGYFNLWGQGTLVTVSS
VL: QPVLAQLPSASAALGASAKLTCTLSSAHRTYTIAWYQQQQGEAPRYLMMLKSDGSYTKGTGVPDRFSGSSSGADRYLIISSVQAADEADYYCGADDSGGYVFGGGTQLTVTG
notes: Rabbit monoclonal antibody from phage display; also called Nectin-4 rabbit monoclonal antibody R012; rabbit antibody R012
For B1, the OD detection value [1] was 0.008 OD450 nm-650 nm, the OD detection value [2] was 0.007 OD450 nm-650 nm and the OD detection value [3] was 0.01 OD450 nm-650 nm. The OD detection value [4] was 0.007 OD450 nm-650 nm, the OD detection value [5] was 0.008 OD450 nm-650 nm and the OD detection value [6] was 0.008 OD450 nm-650 nm. It also gave an OD detection value [7] of 0.008 OD450 nm-650 nm and an OD detection value [8] of 0.009 OD450 nm-650 nm.

B2: Antibody R036 (antibody, V domains shown)
VH: SQSVEESGGRLVTPGTPLTLTCTVSGFSLSSYAMSWVRQAPGKGLEYIGIIGGRGTTYYAIWAKGRFTISKTSTTVDLKITSPTTEDTATYFCARDAGTTYVGTTYVATGYFNLWGQGTLVTVSS
VL: QPVLTQPPSASAALGASAKLTCTLSSAHKTYTIAWYQQQQGEAPRYLMILKSDGSYTRGTGVPDRFSGSSSGADRYLIISSVQADDEADYYCGADDSGGYVFGGGTQLTVTG
notes: Rabbit monoclonal antibody from phage display; also called Nectin-4 rabbit monoclonal antibody R036; rabbit antibody R036
B2 showed an OD detection value [1] of 0.009 OD450 nm-650 nm, an OD detection value [2] of 0.006 OD450 nm-650 nm and an OD detection value [3] of 0.007 OD450 nm-650 nm. For the same binder, the OD detection value [4] was 0.006 OD450 nm-650 nm, the OD detection value [5] was 0.009 OD450 nm-650 nm and the OD detection value [6] was 0.006 OD450 nm-650 nm. It also gave an OD detection value [7] of 0.007 OD450 nm-650 nm and an OD detection value [8] of 0.008 OD450 nm-650 nm.

B3: Antibody MM11 (antibody, mouse IgG1, kappa, V domains shown)
VH: DVQLQESGPGLVKPSQSLSLTCSVTGYSITSNFYWNWIRQFPGNRLEWMGYISYDGSNNYNPSLKNRISISRDTSKNQFFLKLNSVTTEDTATYYCVRADYWGQGTLVTVSA
VL: DTVMTQTPLSLPVSLGDQASISCRSSQSLESSDGHAYLNWYLQKPGQSPQLLIYRVSNRFSGVLHRFSGSGSGTDFTLKISRVEAEDLGVYFCLQFTHVPFTFGSGTKLEIKR
notes: Mouse monoclonal antibody from hybridoma; also called Nectin-4 mouse monoclonal antibody MM11; mouse antibody MM11
B3 gave an OD detection value [1] of 0.008 OD450 nm-650 nm, an OD detection value [2] of 0.007 OD450 nm-650 nm and an OD detection value [3] of 0.008 OD450 nm-650 nm. The OD detection value [4] was 0.009 OD450 nm-650 nm, the OD detection value [5] was 0.008 OD450 nm-650 nm and the OD detection value [6] was 0.012 OD450 nm-650 nm. The OD detection value [7] was 0.017 OD450 nm-650 nm and the OD detection value [8] was 0.012 OD450 nm-650 nm.
